Experiment: yeast display, Sf9 membrane polyspecificity reagent, FACS + sequencing; frameworks hold sequencing errors
In short: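 Nanobodies came from a synthetic yeast display library in Saccharomyces cerevisiae BJ5465, induced with galactose for 36–48 hours and stained for 1 hour at 4 °C with 10% biotinylated, detergent-solubilized Sf9 membrane reagent. Cells were enriched on streptavidin microbeads and then FACS-sorted, with low and high (top ~1%) gates set on anti-HA fluorescence for expression and streptavidin fluorescence for reagent binding. Each polyreactivity label reflects the gate a clone came from. Genes were amplified by colony PCR, sequenced by MiSeq 2 × 250 and filtered by CDR length.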

Sequence	polyreactivity (PSR sort gate)
QDQLVESGGGLLQAGGSLRLSCASSGSIFANYVMGWYRQAPGKEREYFAGISRSGGSTYYADSVKGRFKISRDNAKNTVYLQMTSLKPEDTAVYYCNAGAGQRVSGHSFEYWGQGTQVTVSS	high polyreactivity
QDQLVESGGGLVHAGGSLRLSCAASGRTFFVYAMGWYRHAPGKEREMVANINQGGGSTSYADSVKGRFTISRDNAKNNVYLQMNSLKPEDTAVYYCNADHYGIGYDPVPLGFVGYDYWGQGTQVTVSS	low polyreactivity
QDQLVESGGGLVPAAGSLRLSCASSGFSFRRNAMGCYRQAPGKEREFVAGITSGGSTYYADSVKGRFTISRDNAKNTVYLLLNSLKPEDTAVYFCAATYRRRYGYWGQGTQVTVSS	high polyreactivity
QDQLVESGGGLVQAGASLRLSCAASGSNGYYAMGWYRQAPGKERELVAVISRSGTGTYYADSVKGRFTISRDNAKNSVYLQMNSLKPEDTAVYYCNAETYTYRYEYDYWGQGTQVTVSS	high polyreactivity
QDQLVESGGGLVQAGCSLRLSCAASGLIFNYKVMGWYRHAPGKERELVAAISRGGSTYYADSVKGRFTFSRDNAKNTVYLQMNSLKPEDTAVYYCAARYRSRYDYWGQGTQVTVSS	high polyreactivity
QDQLVESGGGLVQAGCSLRLSCAASGSTIPYNAMGWYRQAPGKERELVAAITWRAGRTYYADSVKGRFTISRDNAKITVYLQMNSLKAEDTAVYDCAKSYQRGVNHYEYWGQGTQVTVSS	high polyreactivity
QDQLVESGGGLVQAGGRLRLSCAASGLMFYYYAMGWYIQAPGKEREFVAAISRSGGITRYADSVKGRFTISRDNAKNTVYLQMNRLKPEDTAVYYCAAAVGSVRYDYWGQGTQVTVSS	high polyreactivity
QDQLVESGGGLVQAGGSHRLSCAASGFIIGYYAMGWYRQAPGKEMELVASIRRGGSTYYADSVKGRFTISRDNAKNTVYLQMNSLKPEDTAVYYCAAQRSVVGWWSRTSLYGDSDYWGLGTQVTVSS	high polyreactivity
QDQLVESGGGLVQAGGSLCLSCAASGITFRFYAMGWNRQAPGKERELVAAISWSGGRTYYADSVKGRFTISRDNAKNTVYLQMNSLKPEDTAVYYCAAEASSVPGYDYWGEGTQVTVSS	low polyreactivity
QDQLVESGGGLVQAGGSLGLSCAASGITFDLYDMGWYRQAPGKERELVAAITDAHSTYYADSVKGRFTISRDNAKNTVYLQMNSLKPEDTAVYYCAADFFYSVDSGHYDYWGQGTQVTVSS	low polyreactivity
QDQLVESGGGLVQAGGSLRISCAASGFTLKKYVMGWYRQAPGKERELVAAISSSGGSTYYADSVKGRFTISRDNAKNTVYLQMNSLKPEDTAVYYCAAVQSYAGFEYGYWGQGTQVTVSS	high polyreactivity
QDQLVESGGGLVQAGGSLRISCAASGSTFPLYAMGWYRQAPGKEMEFVAAIRWIGGSTYYADSVKGRFTISRDNAMNTVYLQMNSLKPEDTAVYYCAADYVVSAFDYWGQGTQVTVSS	low polyreactivity
QDQLVESGGGLVQAGGSLRISCGASGRIFDIYAMGWYRQAPGKERELVADITSGGSTYYADSVQGRFTISRVNAKNTVYLQMNSLKPEDTAVYYCAARLFADYWGQGTHVTVSS	low polyreactivity
QDQLVESGGGLVQAGGSLRLICAASGFTFRWYSMGWYRQAPGKERELVADISRGGSTNYADSVKGRFTISRDHAKNSVYLQMNSLTPEDTAVFYCAATQRKYGYKSYYYWGQGTQVTVSS	high polyreactivity
QDQLVESGGGLVQAGGSLRLSCAASASIFNVNTMGWYRQAPGKERELVAAISYSGGSTYYADSVKGRFTISRDIAKNTVYLQMISLKPEDTAFYYCNVSPTTTVDGGGYDSWGQGTQVTVSS	low polyreactivity
QDQLVESGGGLVQAGGSLRLSCAASGFIFADYAMGWYRQATGKERELVAAISWGGGSTYYADSVKGRFTISRDIAKNTVYLQMNSLKPEDTAVYYCAAANPGSEYDYWGQGTQVTVSS	high polyreactivity
QDQLVESGGGLVQAGGSLRLSCAASGFIFLPYVMGWYRQAPGKERELVAAISGGGGITYYADSVKGRFTISRDNAKNTVYLQMNSLKPEDTAVYYCAARRQRFGYWGQGTQVTVSS	low polyreactivity
QDQLVESGGGLVQAGGSLRLSCAASGFIFSPYAMGWYRQAPGKERELVAAINGGGRTYYADSVKGRFTISRDNAKNTVYLQMNILKPEDTAVYYCAVDPISQGHMDYWGQGTLVTVSS	low polyreactivity
QDQLVESGGGLVQAGGSLRLSCAASGFIIQGNAMGGYRQAPRKERELVAAISSSVSTYYADSVKGRFTISRDNAKNTVYLQMNSLKPEDTAVYYCNSGFPLSLWLGDYWGQGTQVTVSS	low polyreactivity
QDQLVESGGGLVQAGGSLRLSCAASGFIVHRYVMGWYRQAPGKERELVAAISSGGSTNYADSVKGRFTISRDNAKNSVYLQMTSLKPEDTAVYYCAADGFYYRNWGRFRYYYWGQGTQVNVSS	low polyreactivity
QDQLVESGGGLVQAGGSLRLSCAASGFTFGDYAMGWYRQEPGKERELVAAISWSGSNTYYADSVKGRFTISRDNAKNTVYLQMNSLKPEDTAVYYCNADYDPEDMDYWGQGTQVTVSS	low polyreactivity
QDQLVESGGGLVQAGGSLRLSCAASGFTFSVNAMGWYRQAPGKERELVAAITRGRSTSYADSVKGRFTISRDNAKNTVYLQKNSLKPEDTAVYYCAASYSGGTWSGYYYWGQGTQVTVSS	high polyreactivity

Sequence	polyreactivity (PSR sort gate)
QDQLVESGGGLVQAGGSLRLSCAASGFTFSWNAMGWYRQSPGKERQLVAAISWSGGSTYYADSVKGRFTISRDNAKNTVYLQMNSLKPEDTAVYYCNAGSTRAASRVRYDYWGQGTQVTVSS	high polyreactivity
QDQLVESGGGLVQAGGSLRLSCAASGFTFTRYAMGWYRQAPGKERELVAAITQRGGSTYYADSVKGRFTISRDNAKNTVYLQMNSLKPEDTAVYYCAAVQTRRWYGYLYNYWGQGTQVTVSS	high polyreactivity
QDQLVESGGGLVQAGGSLRLSCAASGFTFTRYAMGWYRQAPGKERELVAAITRRSGRTYYADSVKGRFTISRDNAKNTVYLQMNSLKPEDTAVYYCNAVRTTPSGSLPLAYDYWGQGTQVTVSS	high polyreactivity
QDQLVESGGGLVQAGGSLRLSCAASGFTFVINDMGWYRQAPGKERELVADITSGGDTYYADSVKGRFTISRDNAKNTVYLQMNSLKPEDTAVYYCNTDTYFPLYDYWGQGTQVTVSS	low polyreactivity
QDQLVESGGGLVQAGGSLRLSCAASGIIFGYYAMGWDRQAPGKERELVAAISSGGTTSYADSVKGPFTISRDNEKNTVSLQMNSLKPEYTAVYYCAARDGYDGFYYWGQGTQVTVSS	low polyreactivity
QDQLVESGGGLVQAGGSLRLSCAASGIIIWRYAMGRYRQAPRKERELVAGITSRGGSTYYADSVKGRFTISRDNAKNTVYLQMNSLKPEDTAVYYCNADWYGLLWWGVDYWGQGTQVTVSS	high polyreactivity
QDQLVESGGGLVQAGGSLRLSCAASGITFDYYVMGWYRKAPGKEMELVAAISWSGGTTYYADSVKGRFTISRDNAKNTVSLQMNSLKPEDTAVYYCNAEHTGSFYGGYPWEMEYWGQGTQVTVSS	low polyreactivity
QDQLVESGGGLVQAGGSLRLSCAASGITFRWYAMGWYRQAPGKERELVAAITSVDSTDYADSVKGRFTISRDNAKNTVYLQMNSLKPEDTAVYYCAARIGTGVLPGRGANSHMDYWGQGTQVTVSS	low polyreactivity
QDQLVESGGGLVQAGGSLRLSCAASGITFRYYAKGWYRPSPGKERELLAAISTSGGNTYYADSVKGRLTISRDNAKNTVYLQMKSLKPEDTAVYYCDVDGEYWYEYDGDYWGQGTQVNVSS	low polyreactivity
QDQLVESGGGLVQAGGSLRLSCAASGITFYGYAMGWYRQAPGKERELVAAISESGGSTYYADSVKGRFTISRDNAKNTVYLQMNSLKPEDTAVYYCAAQGYSVYCYSNYWGQGTQVTVSS	low polyreactivity
QDQLVESGGGLVQAGGSLRLSCAASGITFYRNAMGWYRQAPGKERELVAAITSGTRTNYADSVKGRFTISRDNAKNTVYLQMNSLKPEDTAVYYCAKGGRSSSPLYRFEYWGQGTQVTVSS	high polyreactivity
QDQLVESGGGLVQAGGSLRLSCAASGLIFPYNAMGWYRQAPGKERELVAAIDTRGSSTYYADSVKGRFTISRDNAKNTVYLQMNSLKPEDTAVYYCIPRSGRSPTGFRYWGQGTEVTVSS	high polyreactivity
QDQLVESGGGLVQAGGSLRLSCAASGLIFVSYAMGWYRQAPGKERELVASITDSDSSTYYADSVKGRFTISRDNAKNTVYLQMNSLKPEDTAVYYCATGGRTEIWYPTLDYWGQGTQVTVSS	low polyreactivity
QDQLVESGGGLVQAGGSLRLSCAASGLIFYGNAMGWYRQAPGQERELVADISGSSVRTYYADSVKGRFTISRDNAKNTVCLQMNSLKPEDTAVYYCAATYGYLYTGLSRYDYWGQGTQVTVSS	low polyreactivity
QDQLVESGGGLVQAGGSLRLSCAASGLIYSYYALGWSRQATGKERELVASISRSGGSTYYADSVKGRFTISRDNAKNTVYLQMNILKPEDPAVYYCDAPGYYRTSRMDYWGQGTQVTVSS	high polyreactivity
QDQLVESGGGLVQAGGSLRLSCAASGLTFEKYAMGWYRQAPGKERELVAAISQDGGSTYYADSVKGRFTISRDNAKNTVYLQMNSLKPEDTAVYYCAAEDPDSWLPWDLFDYWGQGTQVTVSS	low polyreactivity
QDQLVESGGGLVQAGGSLRLSCAASGLTFQSYAIGWYRQAPGKERELVATISNGSSTYYADSVKGRFTISRDNAKNTVYLQMNSQKPEDTAVYYCAADGYLHAGHWRTYGYYYWGHGTQVTVSS	low polyreactivity
QDQLVESGGGLVQAGGSLRLSCAASGLTIIFNAMGWYRQAPGKERELVADISSGVNTNYADSVKGRFTISRDNAKNTVYLQMNSLKPEDTAVYYCAARLAQSTGYGYWGQGTQVTVSS	low polyreactivity
QDQLVESGGGLVQAGGSLRLSCAASGPIFYPYVMGWYRQAPGKERELVAAISDSTGSTYYADSVKGRFTISRDNAKNTVYLQMNSLKPEDTAVYYWGQGTQVTVSS	low polyreactivity
QDQLVESGGGLVQAGGSLRLSCAASGRIFLYNAMGWYRQAPGKERELVAAIDGGGTTYADSVKGRFTISRDNAKNTVYLQMNSLKPEDTAVYYCAADWYYQYSIYRYGYWGQGTQVTVSS	low polyreactivity
QDQLVESGGGLVQAGGSLRLSCAASGRIFPVYAMGWYRQAPGKERELVATITSRTGRTYYADSVKGRFTISRDNAKITVYLQMNSLKPEDTAVYYCAARGYYSAPGYGYWGQGTQVTVSS	high polyreactivity
